Test results published in patent US20220324962A1.

Key:
[1] = biological target: full-length human MISRII (human) (UniProt Q16671); experiment: cell-based or functional assay
[2] = biological target: active recombinant MIS (LRMIS) (human) (UniProt P03971); experiment: cell-based or functional assay
[3] = biological target: active recombinant MIS (LRMIS) (human) (UniProt P03971); experiment: sandwich ELISA: recombinant AMH (25 nM) captured on coated polyclonal anti-AMH, B10 titrated 666-0 nM, detected with anti-mouse Fc HRP

Sequence of UniProt P03971 (P03971 26-560): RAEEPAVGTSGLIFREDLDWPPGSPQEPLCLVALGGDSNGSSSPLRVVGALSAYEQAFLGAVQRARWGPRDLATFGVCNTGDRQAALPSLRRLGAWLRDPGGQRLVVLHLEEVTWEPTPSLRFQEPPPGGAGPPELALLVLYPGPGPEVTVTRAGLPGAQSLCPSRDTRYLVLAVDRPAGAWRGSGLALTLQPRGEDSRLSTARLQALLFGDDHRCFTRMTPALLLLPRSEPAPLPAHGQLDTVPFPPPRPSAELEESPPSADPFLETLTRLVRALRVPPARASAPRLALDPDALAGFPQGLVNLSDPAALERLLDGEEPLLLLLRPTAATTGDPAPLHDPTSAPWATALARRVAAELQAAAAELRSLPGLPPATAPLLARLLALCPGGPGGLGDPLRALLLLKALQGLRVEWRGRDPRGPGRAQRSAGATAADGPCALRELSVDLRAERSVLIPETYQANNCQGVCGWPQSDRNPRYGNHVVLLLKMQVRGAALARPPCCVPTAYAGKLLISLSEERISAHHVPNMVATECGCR
Sequence of UniProt Q16671 (Q16671 18-573): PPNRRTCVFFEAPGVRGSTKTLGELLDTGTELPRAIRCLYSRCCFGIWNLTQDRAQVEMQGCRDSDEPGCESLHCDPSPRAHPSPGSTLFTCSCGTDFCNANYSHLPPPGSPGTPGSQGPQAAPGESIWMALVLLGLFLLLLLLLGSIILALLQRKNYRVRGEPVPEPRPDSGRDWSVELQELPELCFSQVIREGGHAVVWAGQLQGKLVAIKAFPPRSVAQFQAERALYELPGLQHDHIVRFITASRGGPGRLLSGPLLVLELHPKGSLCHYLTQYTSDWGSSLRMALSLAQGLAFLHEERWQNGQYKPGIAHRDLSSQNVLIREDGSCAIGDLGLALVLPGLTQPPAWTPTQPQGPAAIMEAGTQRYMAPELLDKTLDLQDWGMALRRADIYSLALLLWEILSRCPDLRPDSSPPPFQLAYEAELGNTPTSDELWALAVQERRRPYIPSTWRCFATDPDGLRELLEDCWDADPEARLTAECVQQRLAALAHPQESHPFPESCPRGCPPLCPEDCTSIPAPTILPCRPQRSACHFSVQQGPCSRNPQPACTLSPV

Apoptosis, evaluated by measuring caspase-3/7 activity (COV434-MISRII cells) [1]	Apoptosis, evaluated by measuring caspase-3/7 activity (SKOV3-MISRII cells) [1]	decrease in Caspase-3/7 activity induced by 25 nM MIS (fold change relative to untreated cells) [2]	EC50 [3]	Molecule
12.5 nM	6.3 nM			active recombinant MIS (LRMIS) (from UniProt P03971 26-560) (ligand)
		40%	50.4 nM	anti-MIS antibody B10 (antibody, V domains shown) VH: EVQLVESGGSLVKPGGSLRLSCAASGFTFSNYNMNWVRQAPGKGLEWISDINGSSRSIYYADFVKGRFTISRDNATNSLYLQMNSLRAEDTAVYYCVRSSYYGGGMDVWGRGTLVTVSS VL: QSVLTQPASVSGSPGQSITISCAGTSSDVGGYNYVSWYQQHPGKAPKLMIYYDSYRPSGVSNRFSGSKSGNTASLTISGLQAEDEADYYCSSYTDYSTRVFGGGTKLAVLG
